{"source": "paper PMC4317013", "about": "(The Journal of Biological Chemistry, 2014)", "molecules": {"B1": {"name": "rmPCI: recombinant mouse protein C inhibitor with N-terminal His tag (protein, UniProt P70458 25-405, looked up)", "Plasma serine protease …": "SKKKKAKESSVGAVGPPSSKDFAFRLYRALVSESPGQNVFFSPLSVSMSLGMLSLGAGLKTKTQILDGLGLSLQQGQEDKLHKGFQQLLQRFRQPSDGLQLSLGSALFKDPAVHIRDDFLSAMKTLYMSDTFSTNFGNPEIAKKQINNYVAKQTKGKIVDFIKDLDSTHVMIVVNYIFFKAKWQTAFSETNTHKMDFHVTPKRTTQVPMMNREDGYSYYLDQNISCTVVGIPYQGNAIALFILPSEGKMKQVEDGLDERTLRNWLKMFTKRRLDLYLPKFSIEATYKLENVLPKLGIQDVFTTHADLSGITDHTNIKLSEMVHKSMMEVEESGTTAAAITGAIFTFRSARPSSLKIEFTRPFLLTLMEDSHILFVGKVTRP", "modifications": "N-terminal His tag"}, "B2": {"name": "rmPCI preincubated with U937 cells: rmPCI preincubated with testisin-expressing U937 cells (protein, UniProt P70458 25-405, looked up)", "Plasma serine protease …": "B1 Plasma serine protease …", "modifications": "preincubated with U937 cells"}, "B3": {"name": "rhPCI: recombinant human protein C inhibitor with N-terminal His tag (protein, UniProt P05154 26-406, looked up)", "Plasma serine protease …": "EMKKRVEDLHVGATVAPSSRRDFTFDLYRALASAAPSQSIFFSPVSISMSLAMLSLGAGSSTKMQILEGLGLNLQKSSEKELHRGFQQLLQELNQPRDGFQLSLGNALFTDLVVDLQDTFVSAMKTLYLADTFPTNFRDSAGAMKQINDYVAKQTKGKIVDLLKNLDSNAVVIMVNYIFFKAKWETSFNHKGTQEQDFYVTSETVVRVPMMSREDQYHYLLDRNLSCRVVGVPYQGNATALFILPSEGKMQQVENGLSEKTLRKWLKMFKKRQLELYLPKFSIEGSYQLEKVLPSLGISNVFTSHADLSGISNHSNIQVSEMVHKAVVEVDESGTRAAAATGTIFTFRSARLNSQRLVFNRPFLMFIVDNNILFLGKVNRP", "modifications": "N-terminal His tag"}}, "key": {"[1]": {"system": "testisin", "experiment": "30 nM testisin in testisin buffer (50 mM Tris, 150 mM NaCl, 10 mM CaCl2, pH 7.5)", "settings": "37 °C, up to 120 min"}, "[2]": {"molecular_target": "T1, testisin (Mus musculus, UniProt Q9JHJ7)", "T1 construct": "purchased R&D Systems", "T1 sequence (Q9JHJ7 55-298 limits assumed)": "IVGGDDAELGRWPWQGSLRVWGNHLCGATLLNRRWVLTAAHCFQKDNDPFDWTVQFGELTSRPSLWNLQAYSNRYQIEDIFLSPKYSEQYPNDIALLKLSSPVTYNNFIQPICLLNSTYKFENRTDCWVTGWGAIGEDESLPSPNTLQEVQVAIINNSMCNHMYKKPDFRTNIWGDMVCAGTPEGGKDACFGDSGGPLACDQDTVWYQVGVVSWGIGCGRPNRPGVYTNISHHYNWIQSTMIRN", "experiment": "Cleavage by and complex formation with testisin in solution (SDS-PAGE, Western blotting, Edman degradation)", "format": "biochemical", "settings": "for N-terminal testisin cleavage site: Edman degradation of testisin-cleaved protein, Fig. 1D", "procedure": "Activation of protestisin and testisin (R&D Systems, Minneapolis, MN) activity assays were performed according to the instructions of the supplier. Inhibition of testisin by PCI was tested on 96-well F16 Black MaxiSorp plates (Nunc, Roskilde, Denmark). 20 nM testisin was incubated with 200 or 1000 nM (final concentration) rhPCI or rmPCI in the absence or presence of 5 units/ml heparin in 100 μl of testisin buffer (50 mM Tris, 150 mM NaCl, 10 mM CaCl2, pH 7.5). After a 30-min incubation at 37 °C, 100 μl of 0.2 mM fluorogenic substrate I-1295 (Bachem, Bubendorf, Switzerland) dissolved in testisin buffer was added to each well. Plates were read every 15 s at an excitation wavelength of 380 nm and an emission wavelength of 460 nm using a Synergy H4 microplate reader (BioTek, Seattle, WA). The 5-min time point was used to calculate the relative activity. The amidolytic activity of testisin in the absence of PCI was assigned to 1, and for each reaction, the remaining testisin activity was calculated. To detect the possible complex formation between PCI and testisin, different concentrations (7.5–960 nM) of rhPCI or rmPCI, respectively, were incubated with 30 nM testisin for varying times (0–40 min) at 37 °C. The reactions were stopped by adding an equal volume of 2× Laemmli buffer containing 5% 2-mercaptoethanol ([40]). Samples were heated at 99 °C for 5 min followed by sodium dodecyl sulfate-polyacrylamide electrophoresis (SDS-PAGE) and Western blotting. To determine the testisin cleavage sites in human and mouse PCI, WT PCI or PCI mutants (rhPCI, hPCI-R11G, hPCI-R354G, rmPCI, mPCI-A18G, or mPCI-R352G, respectively; 300 nM each) were incubated with 30 nM testisin for 1 h at 37 °C. […]\nSDS-PAGE was performed according to the method of Laemmli ([40]) using 10% acrylamide gels. […] The signal was detected using SuperSignal West Femto or SuperSignal West Pico chemiluminescent substrate (Thermo Fisher Scientific, Rockford, IL) with a FluorChem HD2 imaging system (ProteinSimple, Santa Clara, CA). […]"}, "[3]": {"system": "Jurkat T cells", "procedure": "For the internalization experiment, cells were seeded at 1 × 10^6 cells/ml with 8 ml of full medium into 75-cm^2 flasks and treated with respective 200 nM proteins for 2 h or 5 μM peptides for 1 h.\nHuman A+-helix peptide ([…]; corresponding to the cleaved N-terminal peptide of hPCI), mouse A+-helix peptide ([…]; corresponding to the cleaved N-terminal peptide of mPCI), and TAT peptide ([…]) ([42]) were synthesized and labeled with FITC (GenScript, Piscataway, NJ). […] Fluorescence-activated cell sorting (FACS) analysis was performed with a FACSCalibur flow cytometer (BD Biosciences). Further data analysis was done with Flowing Software ([43]). For confocal microscopy, the fixed cells were suspended with Vectashield mounting medium containing […] DAPI (Vector Laboratories, Burlingame, CA) and transferred onto slides. Confocal images were taken by a Zeiss LSM-510 Meta confocal microscope system (Zeiss, Jena, Germany). Zeiss LSM Image Browser software was applied for further analysis of images."}, "[4]": {"system": "Jurkat T cells", "experiment": "Internalization of PCI forms by Jurkat T cells (cell lysis, subcellular fractionation, Western blotting)", "format": "cell-based, human", "settings": "200 nM protein, 2 h, 37 °C, Western blotting with anti-mPCI IgG; for internalization by Jurkat T cells (whole cell lysate and subcellular fractions): full medium, Fig. 3", "procedure": "SDS-PAGE was performed according to the method of Laemmli ([40]) using 10% acrylamide gels. Following electrophoresis, the proteins were transferred onto PVDF membranes. The membranes were blocked with blotting buffer (5% skim milk powder and 0.05% Tween 20 in PBS, pH 7.4) for 1 h at room temperature. Rabbit anti-mPCI IgG (diluted 1:1000; homemade), rabbit anti-hPCI IgG (diluted 1:1000; homemade), monoclonal mouse anti-penta-His IgG (diluted 1:500; Qiagen, Hilden, Germany), rabbit anti-testisin IgG (diluted 1:500; Abgent, San Diego, CA), mouse monoclonal anti-A1AT(diluted 1:2000; Fisher Scientific GmbH), rabbit anti-actin IgG (diluted 1:2000; Sigma-Aldrich), monoclonal mouse anti-lamin B2 IgG (diluted 1:2000; Abcam, Cambridge, UK), and monoclonal mouse anti-Hsp 90 IgG (diluted 1:2000; Exbio, Prague, Czech) were used, respectively, in blotting buffer. The respective secondary antibodies were horseradish peroxidase-conjugated donkey anti-rabbit IgG (diluted 1:5000; GE Healthcare Handels GmbH) and horseradish peroxidase-conjugated sheep anti-mouse IgG (diluted 1:5000; GE Healthcare Handels GmbH). The signal was detected using SuperSignal West Femto or SuperSignal West Pico chemiluminescent substrate (Thermo Fisher Scientific, Rockford, IL) with a FluorChem HD2 imaging system (ProteinSimple, Santa Clara, CA).\nJurkat T cells were incubated in full medium with 200 nM rmPCI, testisin-cleaved rmPCI, or ΔR1-A18 mPCI, respectively, at 37 °C for 2 h. 1 × 10^7 cells were harvested and washed three times with PBS. To prepare whole cell lysates, cell pellets were resuspended and incubated in CelLytic M cell lysis buffer at room temperature for 10 min and applied to electrophoresis. Subcellular fractions were prepared as described previously ([41]) with some modifications. In brief, cell pellets were resuspended in 125 μl of buffer A (10 mM Hepes, pH 7.9, 10 mM KCl, 1.5 mM MgCl2, 0.34 M sucrose, 10% glycerol, 1 mM DTT, 0.1% Triton X-100) containing 10 μl of protease inhibitor mixture P8340 (Sigma-Aldrich) and incubated for 8 min. […]"}, "[5]": {"molecular_target": "enteropeptidase (Homo sapiens, UniProt P98073)", "sequence (P98073 whole entry, species assumed)": "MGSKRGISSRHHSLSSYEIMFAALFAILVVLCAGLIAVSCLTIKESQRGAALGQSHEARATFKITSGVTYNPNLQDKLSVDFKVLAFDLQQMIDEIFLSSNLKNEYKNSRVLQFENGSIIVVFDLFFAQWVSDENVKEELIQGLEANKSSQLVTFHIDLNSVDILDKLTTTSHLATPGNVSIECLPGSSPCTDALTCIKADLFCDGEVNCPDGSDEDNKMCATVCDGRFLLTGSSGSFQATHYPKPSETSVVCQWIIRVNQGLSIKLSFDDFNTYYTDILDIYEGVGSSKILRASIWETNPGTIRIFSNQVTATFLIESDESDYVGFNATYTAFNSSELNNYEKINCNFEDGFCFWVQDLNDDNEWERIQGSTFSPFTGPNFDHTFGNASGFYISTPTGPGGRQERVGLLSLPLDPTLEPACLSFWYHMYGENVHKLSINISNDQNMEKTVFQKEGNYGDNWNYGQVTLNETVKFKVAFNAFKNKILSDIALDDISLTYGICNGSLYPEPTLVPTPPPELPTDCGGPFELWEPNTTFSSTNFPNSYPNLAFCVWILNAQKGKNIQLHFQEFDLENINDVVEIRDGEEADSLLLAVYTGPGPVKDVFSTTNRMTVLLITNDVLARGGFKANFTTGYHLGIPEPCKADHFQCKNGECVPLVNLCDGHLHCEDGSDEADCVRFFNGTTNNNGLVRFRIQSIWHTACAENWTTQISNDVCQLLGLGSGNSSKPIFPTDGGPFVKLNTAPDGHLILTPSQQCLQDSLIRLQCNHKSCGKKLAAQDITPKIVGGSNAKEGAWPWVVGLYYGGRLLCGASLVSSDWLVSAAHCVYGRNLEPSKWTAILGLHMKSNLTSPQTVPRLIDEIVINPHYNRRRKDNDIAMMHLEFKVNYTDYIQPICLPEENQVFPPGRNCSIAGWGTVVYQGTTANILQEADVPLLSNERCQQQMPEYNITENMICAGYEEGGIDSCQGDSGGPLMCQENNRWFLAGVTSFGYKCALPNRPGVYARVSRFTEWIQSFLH", "experiment": "Interaction of PCI with other proteases: enteropeptidase", "format": "biochemical", "settings": "300 nM rmPCI, 30 nM protease, 37 °C, Fig. 1F", "procedure": "(§1) Urokinase, aPC, thrombin, or enteropeptidase (30 nM each) was incubated with 300 nM rmPCI, respectively, for different periods (10 or 120 min) at 37 °C. The reactions were stopped by adding an equal volume of 2× Laemmli buffer containing 5% 2-mercaptoethanol ([40]). Samples were heated at 99 °C for 5 min followed by SDS-PAGE and Western blotting.\n(§2) SDS-PAGE was performed according to the method of Laemmli ([40]) using 10% acrylamide gels. Following electrophoresis, the proteins were transferred onto PVDF membranes. The membranes were blocked with blotting buffer (5% skim milk powder and 0.05% Tween 20 in PBS, pH 7.4) for 1 h at room temperature. […] The signal was detected using SuperSignal West Femto or SuperSignal West Pico chemiluminescent substrate (Thermo Fisher Scientific, Rockford, IL) with a FluorChem HD2 imaging system (ProteinSimple, Santa Clara, CA)."}, "[6]": {"molecular_target": "Urokinase (Homo sapiens, UniProt P00749)", "experiment": "Interaction of PCI with other proteases: urokinase", "format": "biochemical", "settings": "300 nM rmPCI, 30 nM protease, 37 °C, Fig. 1F", "procedure": "as §1, §2"}, "[7]": {"molecular_target": "aPC (Homo sapiens, UniProt P04070)", "sequence (P04070 212-461 limits assumed)": "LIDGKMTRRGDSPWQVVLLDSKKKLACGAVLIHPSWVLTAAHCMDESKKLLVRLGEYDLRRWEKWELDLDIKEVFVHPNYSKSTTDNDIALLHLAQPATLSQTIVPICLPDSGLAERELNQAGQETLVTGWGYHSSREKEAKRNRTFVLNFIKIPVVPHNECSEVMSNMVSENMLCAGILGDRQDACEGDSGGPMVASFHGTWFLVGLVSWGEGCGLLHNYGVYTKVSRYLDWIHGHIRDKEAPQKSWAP", "sequence (P04070 43-197 partner limits assumed)": "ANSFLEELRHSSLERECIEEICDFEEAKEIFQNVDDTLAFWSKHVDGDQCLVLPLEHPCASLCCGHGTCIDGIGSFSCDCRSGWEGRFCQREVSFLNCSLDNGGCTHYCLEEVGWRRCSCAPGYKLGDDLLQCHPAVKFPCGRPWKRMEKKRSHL", "experiment": "Interaction of PCI with other proteases: aPC", "format": "biochemical", "settings": "300 nM rmPCI, 30 nM protease, 37 °C, Fig. 1F", "procedure": "as §1, §2"}}, "data": [{"molecule": "HRHHPREMKKRVEDLHVGATV...", "values": [{"measurement": "cleaved bond", "setting": "[1]", "result": "Arg11-Val12"}]}, {"molecule": "A1AT: serum-derived human α1-antitrypsin (Sigma-Aldrich), another serpin [reference compound]", "values": [{"measurement": "cleavage by testisin (Western blotting)", "setting": "[2]; 300 nM protein, 30 nM testisin, 0–40 min, 37 °C, testisin buffer, Fig. 1A, B", "result": "Neither cleavage"}]}, {"molecule": "RRHSHSKKKKAKESSVGA [mouse A+-helix-FITC]", "values": [{"measurement": "intracellular localization (confocal microscopy)", "setting": "[3]", "result": "cytosolic and nuclear localization"}]}, {"molecule": "HRHHPREMKKR [human A+-helix-FITC]", "values": [{"measurement": "intracellular localization (confocal microscopy)", "setting": "[3]", "result": "cytosolic and nuclear localization"}]}, {"molecule": "B1", "values": [{"measurement": "internalization by Jurkat T cells (whole cell lysate and subcellular fractions)", "setting": "[4]", "result": "taken up by Jurkat T cells and translocated to the nucleus"}, {"measurement": "detection in subcellular fractions of Jurkat T cells", "setting": "[4]; Fig. 4D", "result": "detected in the nuclear envelope fraction"}, {"measurement": "cleavage by enteropeptidase", "setting": "[5]; 10 or 120 min, anti-mPCI IgG", "result": "appearance of a cleaved PCI form"}, {"measurement": "N-terminal cleavage by enteropeptidase", "setting": "[5]; 120 min, anti-penta-His IgG", "result": "do not cleave the N terminus"}, {"measurement": "N-terminal testisin cleavage site", "setting": "[2]", "result": "between Ala^18 and Val^19"}, {"measurement": "cleavage by urokinase", "setting": "[6]; 10 or 120 min, anti-mPCI IgG", "result": "appearance of a cleaved PCI form"}, {"measurement": "N-terminal cleavage by urokinase", "setting": "[6]; 120 min, anti-penta-His IgG", "result": "do not cleave the N terminus"}, {"measurement": "cleavage by aPC", "setting": "[7]; 10 or 120 min, anti-mPCI IgG", "result": "appearance of a cleaved PCI form"}, {"measurement": "N-terminal cleavage by aPC", "setting": "[7]; 120 min, anti-penta-His IgG, N-terminally cleaved form in aPC-PCI complex not completely ruled out", "result": "do not cleave the N terminus"}]}, {"molecule": "B2", "values": [{"measurement": "internalization by Jurkat T cells (whole cell lysate and subcellular fractions)", "setting": "[4]", "result": "not detected inside Jurkat T cells"}]}, {"molecule": "B3", "values": [{"measurement": "N-terminal testisin cleavage site", "setting": "[2]", "result": "between Arg^11 and Val^12"}]}]}
